According to patent US20180030151A1 (MOGAM INSTITUTE FOR BIOMEDICAL RESEARCH, published 2018):
Like-named read-outs stand apart in the source and are kept apart here. One block for each binder: values may come before it.

Assays:
[1] = molecular target: T1, recombinant human TFPI (tissue factor pathway inhibitor) (human, UniProt P10646 29-304); assay: cell-based or functional assay
[2] = molecular target: T1, recombinant human TFPI (tissue factor …); assay: cell-based or functional assay; remark: listed apart in the source
[3] = molecular target: T1, recombinant human TFPI (tissue factor …); assay: cell-based or functional assay; remark: listed apart in the source
[4] = molecular target: T1, recombinant human TFPI (tissue factor …); assay: cell-based or functional assay; remark: listed apart in the source
[5] = molecular target: T1, recombinant human TFPI (tissue factor …); assay: cell-based or functional assay; remark: listed apart in the source
[6] = molecular target: T1, recombinant human TFPI (tissue factor …); assay: SPR, Biacore T-200; TFPI immobilised on CM5 chip, IgG as analyte
Experimental: 10 mM of glycine-HCl (pH 1.5) was run at a flow rate of 30 μL/min for 30 seconds, thereby inducing the dissociation of the antibody associated with the TFPI. The affinity in terms of kinetic rate constants (Kₒₙ and Koff) and equilibrium dissociation constant

[7] = molecular target: T1, recombinant human TFPI (tissue factor …); assay: cell-based or functional assay; remark: listed apart in the source
[8] = molecular target: T1, recombinant human TFPI (tissue factor …); assay: cell-based or functional assay; remark: listed apart in the source
[9] = molecular target: T1, recombinant human TFPI (tissue factor …); assay: cell-based or functional assay; remark: listed apart in the source
[10] = molecular target: T1, recombinant human TFPI (tissue factor …); assay: cell-based or functional assay; remark: listed apart in the source
[11] = molecular target: T1, recombinant human TFPI (tissue factor …); assay: cell-based or functional assay; remark: listed apart in the source
[12] = molecular target: T1, recombinant human TFPI (tissue factor …); assay: cell-based or functional assay; remark: listed apart in the source
[13] = molecular target: T1, recombinant human TFPI (tissue factor …); assay: cell-based or functional assay; remark: listed apart in the source
[14] = molecular target: TFPI in FVIII-deficient plasma (sample dilution); assay: cell-based or functional assay

FXa assay % of FXa alone, 2.5 nM Ab, 10 nM TFPI [1]: 8.3%
FXa assay % of FXa alone, 5 nM Ab, 10 nM TFPI [1]: 59.8%
FXa assay % of FXa alone, 10 nM Ab, 10 nM TFPI [1]: 73.9%
FXa assay % of FXa alone, 20 nM Ab, 10 nM TFPI [1]: 74.1%
FXa assay OD, 2.5 nM Ab, 10 nM TFPI [1]: 0.06
FXa assay OD, 5 nM Ab, 10 nM TFPI [1]: 0.43
FXa assay OD, 10 nM Ab, 10 nM TFPI [1]: 0.531
FXa assay % of FXa alone, 2.5 nM Ab, 10 nM TFPI [2]: 8.5%
FXa assay % of FXa alone, 5 nM Ab, 10 nM TFPI [2]: 26.5%
FXa assay % of FXa alone, 10 nM Ab, 10 nM TFPI [2]: 57.9%
FXa assay % of FXa alone, 20 nM Ab, 10 nM TFPI [2]: 67%
FXa assay OD, 2.5 nM Ab, 10 nM TFPI [2]: 0.041
FXa assay OD, 5 nM Ab, 10 nM TFPI [2]: 0.129
FXa assay OD, 10 nM Ab, 10 nM TFPI [2]: 0.28
FXa assay OD, 20 nM Ab, 10 nM TFPI [2]: 0.325
% of Normalized, TF/FVIIa/FX complex assay, Ab 1.56 nM [3]: 16.1%
% of Normalized, TF/FVIIa/FX complex assay, Ab 3.13 nM [3]: 17.2%
% of Normalized, TF/FVIIa/FX complex assay, Ab 6.25 nM [3]: 19.4%
% of Normalized, TF/FVIIa/FX complex assay, Ab 12.5 nM [3]: 23.2%
% of Normalized, TF/FVIIa/FX complex assay, Ab 25 nM [3]: 75%
% of Normalized, TF/FVIIa/FX complex assay, Ab 50 nM [3]: 95.2%
% of Normalized, TF/FVIIa/FX complex assay, Ab 100 nM [3]: 97%
TFPI inhibitory activity, FXa activity assay, Ab 10 nM [4]: 78%
TFPI inhibitory activity, FXa activity assay, Ab 40 nM [4]: 82%
TFPI inhibitory activity, TF/FVIIa/FXa complex assay, Ab 50 nM [4]: 100%
TFPI inhibitory activity, TF/FVIIa/FXa complex assay, Ab 100 nM [4]: 100%
FXa assay % of FXa alone, 2.5 nM Ab, 10 nM TFPI [5]: 7%
FXa assay % of FXa alone, 5 nM Ab, 10 nM TFPI [5]: 20.8%
FXa assay % of FXa alone, 10 nM Ab, 10 nM TFPI [5]: 49.3%
FXa assay % of FXa alone, 20 nM Ab, 10 nM TFPI [5]: 68.4%
FXa assay OD, 2.5 nM Ab, 10 nM TFPI [5]: 0.057
FXa assay OD, 5 nM Ab, 10 nM TFPI [5]: 0.169
FXa assay OD, 10 nM Ab, 10 nM TFPI [5]: 0.401
FXa assay OD, 20 nM Ab, 10 nM TFPI [5]: 0.555
Kd [6]: 0.024 nM
% of Normalized, TF/FVIIa/FX complex assay, Ab 1.56 nM [7]: 14.7%
% of Normalized, TF/FVIIa/FX complex assay, Ab 3.13 nM [7]: 16.8%
% of Normalized, TF/FVIIa/FX complex assay, Ab 6.25 nM [7]: 19.2%
% of Normalized, TF/FVIIa/FX complex assay, Ab 12.5 nM [7]: 24.2%
% of Normalized, TF/FVIIa/FX complex assay, Ab 25 nM [7]: 72.3%
% of Normalized, TF/FVIIa/FX complex assay, Ab 50 nM [7]: 101%
% of Normalized, TF/FVIIa/FX complex assay, Ab 100 nM [7]: 102%
FXa assay % of FXa alone, 2.5 nM Ab, 10 nM TFPI [8]: 8.6%
FXa assay % of FXa alone, 5 nM Ab, 10 nM TFPI [8]: 30.7%
FXa assay % of FXa alone, 10 nM Ab, 10 nM TFPI [8]: 60.4%
FXa assay % of FXa alone, 20 nM Ab, 10 nM TFPI [8]: 71.6%
FXa assay OD, 2.5 nM Ab, 10 nM TFPI [8]: 0.069
FXa assay OD, 5 nM Ab, 10 nM TFPI [8]: 0.247
FXa assay OD, 10 nM Ab, 10 nM TFPI [8]: 0.487
FXa assay OD, 20 nM Ab, 10 nM TFPI [8]: 0.578
FXa assay % of FXa alone, 2.5 nM Ab, 10 nM TFPI [9]: 9.9%
FXa assay % of FXa alone, 5 nM Ab, 10 nM TFPI [9]: 56.8%
FXa assay % of FXa alone, 10 nM Ab, 10 nM TFPI [9]: 76.8%
FXa assay % of FXa alone, 20 nM Ab, 10 nM TFPI [9]: 77.3%
FXa assay OD, 2.5 nM Ab, 10 nM TFPI [9]: 0.0765
FXa assay OD, 5 nM Ab, 10 nM TFPI [9]: 0.438
FXa assay OD, 10 nM Ab, 10 nM TFPI [9]: 0.591
A405, TF/FVIIa/FX complex assay, Ab 1.56 nM [10]: 0.154
A405, TF/FVIIa/FX complex assay, Ab 3.13 nM [10]: 0.164
A405, TF/FVIIa/FX complex assay, Ab 6.25 nM [10]: 0.185
A405, TF/FVIIa/FX complex assay, Ab 12.5 nM [10]: 0.222
A405, TF/FVIIa/FX complex assay, Ab 25 nM [10]: 0.716
A405, TF/FVIIa/FX complex assay, Ab 50 nM [10]: 0.909
A405, TF/FVIIa/FX complex assay, Ab 100 nM [10]: 0.926
TF/FVIIa/FXa assay % of 0 nM TFPI, 12.5 nM Ab, 50 nM TFPI [11]: 20.7%
TF/FVIIa/FXa assay % of 0 nM TFPI, 50 nM Ab, 50 nM TFPI [11]: 111%
TF/FVIIa/FXa assay % of 0 nM TFPI, 100 nM Ab, 50 nM TFPI [11]: 111%
TF/FVIIa/FXa assay OD, 12.5 nM Ab, 50 nM TFPI [11]: 0.166 OD
TF/FVIIa/FXa assay OD, 25 nM Ab, 50 nM TFPI [11]: 0.548 OD
TF/FVIIa/FXa assay OD, 50 nM Ab, 50 nM TFPI [11]: 0.886 OD
TF/FVIIa/FXa assay OD, 100 nM Ab, 50 nM TFPI [11]: 0.89 OD
FXa assay % of FXa alone, 0.625 nM Ab, 10 nM TFPI [12]: 4%
FXa assay % of FXa alone, 2.5 nM Ab, 10 nM TFPI [12]: 8%
FXa assay OD, 0.625 nM Ab, 10 nM TFPI [12]: 0.042 OD
FXa assay OD, 2.5 nM Ab, 10 nM TFPI [12]: 0.083 OD
FXa assay OD, 10 nM Ab, 10 nM TFPI [12]: 0.765 OD
FXa assay OD, 40 nM Ab, 10 nM TFPI [12]: 0.804 OD
A405, TF/FVIIa/FX complex assay, Ab 1.56 nM [13]: 0.135
A405, TF/FVIIa/FX complex assay, Ab 3.13 nM [13]: 0.155
A405, TF/FVIIa/FX complex assay, Ab 6.25 nM [13]: 0.177
A405, TF/FVIIa/FX complex assay, Ab 12.5 nM [13]: 0.223
A405, TF/FVIIa/FX complex assay, Ab 25 nM [13]: 0.664
A405, TF/FVIIa/FX complex assay, Ab 50 nM [13]: 0.926
A405, TF/FVIIa/FX complex assay, Ab 100 nM [13]: 0.938
B1: clone 308-4 (antibody, V domains shown)
VH: EVQLVESGGGLVKPGGSLRLSCAASGFTFSSYAMNWVRQAPGKGLEWVSTITTGGSYTYYADSVEGRFTISRDNAKNSLYLQMNSLRAEDTAVYYCARQDGNFLMDYWGQGTLVTVSS
VL: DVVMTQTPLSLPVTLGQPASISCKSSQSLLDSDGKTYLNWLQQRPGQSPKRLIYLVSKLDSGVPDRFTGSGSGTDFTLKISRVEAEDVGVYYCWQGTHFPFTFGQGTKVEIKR

TFPI inhibitory activity, FXa activity assay, Ab 10 nM [4]: ~58.2%
TFPI inhibitory activity, FXa activity assay, Ab 40 nM [4]: ~85.1%
TFPI inhibitory activity, TF/FVIIa/FXa complex assay, Ab 50 nM [4]: ~54.2%
TFPI inhibitory activity, TF/FVIIa/FXa complex assay, Ab 100 nM [4]: ~94.3%
ETP vs negative control, thrombin generation assay, Ab 2.5 nM [14]: 122%
thrombin peak vs blank, thrombin generation assay, Ab 2.5 nM [14]: 162%
Kd [6]: 0.05 nM
TF/FVIIa/FXa assay % of 0 nM TFPI, 12.5 nM Ab, 50 nM TFPI [11]: 17.9%
TF/FVIIa/FXa assay % of 0 nM TFPI, 50 nM Ab, 50 nM TFPI [11]: 66.5%
TF/FVIIa/FXa assay % of 0 nM TFPI, 100 nM Ab, 50 nM TFPI [11]: 104%
TF/FVIIa/FXa assay OD, 12.5 nM Ab, 50 nM TFPI [11]: 0.143 OD
TF/FVIIa/FXa assay OD, 25 nM Ab, 50 nM TFPI [11]: 0.248 OD
TF/FVIIa/FXa assay OD, 50 nM Ab, 50 nM TFPI [11]: 0.533 OD
TF/FVIIa/FXa assay OD, 100 nM Ab, 50 nM TFPI [11]: 0.833 OD
FXa assay % of FXa alone, 0.625 nM Ab, 10 nM TFPI [12]: 5%
FXa assay % of FXa alone, 2.5 nM Ab, 10 nM TFPI [12]: 8%
FXa assay OD, 0.625 nM Ab, 10 nM TFPI [12]: 0.049 OD
FXa assay OD, 2.5 nM Ab, 10 nM TFPI [12]: 0.078 OD
FXa assay OD, 10 nM Ab, 10 nM TFPI [12]: 0.519 OD
FXa assay OD, 40 nM Ab, 10 nM TFPI [12]: 0.718 OD
B2: clone 308 (antibody, V domains shown)
VH: EVQLVESGGGLVKPGGSLRLSCAASGFTFSSYAMNWVRQAPGKGLEWVSTITTGGSYTYYADSVKGRFTISRDNAKNSLYLQMNSLRAEDTAVYYCARQDGNFLMDYWGQGTLVTVSS
VL: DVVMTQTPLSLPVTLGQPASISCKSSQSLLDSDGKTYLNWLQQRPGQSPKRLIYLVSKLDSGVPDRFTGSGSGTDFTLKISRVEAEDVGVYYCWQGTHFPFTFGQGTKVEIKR
notes: Humanized form of T417, IgG
